This passage reports percent of parent results from publication PMC10866687 (2024).

The chains are these.
B1: cortactin-GFP (wild type), in 293T cells [not stated] / FLAG-MAP1B-LC1 (wild type) [not stated (human or rat cDNA cloned)] (parent complex)
chain 1: not shown
chain 2: DRSPSPRHPDVSMVDPEALAIEQNLGKALKKDLKEKTKTKKPGTKTKSSSPVKKSDGKSKPLAASPKPAGLKESSDKVSRVASPKKKESVEKAAKPTTTPEVKAARGEEKDKETKNAANASASKSAKTATAGPGTTKTTKSSAVPPGLPVYLDLCYIPNHSNSKNVDVEFFKRVRSSYYVVSGNDPAAEEPSRAVLDALLEGKAQWGSNMQVTLIPTHDSEVMREWYQETHEKQQDLNIMVLASSSTVVMQDESFPACKIEL

In this experiment the parent is B1. Kind of experiment: coimmunoprecipitation (IP FLAG, immunoblot quantification); n = 4 experiments; parent: 100; read off a plot. In general terms: In western blotting, separated proteins are transferred to a membrane and probed.
On to chain 2 P6A, chain 2 R7A, for which the percent of parent was ~78 % of WT. The figure for chain 2 K41A, chain 2 P42A is ~76 % of WT; for chain 2 K60A, chain 2 P61A it is ~120 % of WT; for chain 2 P66A, chain 2 K67A, chain 2 P68A it is ~93 % of WT. The figure for chain 2 K95A, chain 2 P96A is ~110 % of WT. For the variant chain 2 P145A, chain 2 P146A, the percent of parent is ~36 % of WT.
